In the supplement of paper PMC10567573:

B1: PPFIA4 (parent)
chain: YAGNLHESGVHGALLALDENFDHN
B2: ATE1 (parent)
chain: DYFPSEDFYRCGYCKNESGSRSNG

Variants of: B1
Assay: protein stability index of a GFP-peptide fusion (GPS, HEK-293T) (PSI 1-6); higher = more stable
Details: c terminus: a fixed tail appended
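Note: lentivirally expressed fusions sorted by FACS into six bins by GFP to DsRed ratio, PSI derived from sequencing read proportions per bin multiplied by bin number.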

| Variant | protein stability index |
| --- | --- |
| YAGNLHESGVHGALLALDENFDHP | 2.39 |
| YAGNLHESGVHGALLALDENFDHD | 2.46 |
| YAGNLHESGVHGALLALDENFDHC | 2.58 |

Variants of: B2
Assay: as above
Details: c terminus: a fixed tail appended

| Variant | protein stability index |
| --- | --- |
| DYFPSEDFYRCGYCKNESGSRSWG | 2.6 |
| DYFPSEDFYRCGYCKNESGSRSMG | 1.52 |
| DYFPSEDFYRCGYCKNESGSRSIG | 1.52 |
| DYFPSEDFYRCGYCKNESGSRSCG | 1.28 |
| DYFPSEDFYRCGYCKNESGSRSFG | 1.26 |
| DYFPSEDFYRCGYCKNESGSRSLG | 2.65 |
| DYFPSEDFYRCGYCKNESGSRSHG | 2.16 |
| DYFPSEDFYRCGYCKNESGSRSPG | 1.91 |
| DYFPSEDFYRCGYCKNESGSRSKG | 2.51 |
| DYFPSEDFYRCGYCKNESGSRSRG | 1.76 |
| DYFPSEDFYRCGYCKNESGSRSVG | 1.25 |
| DYFPSEDFYRCGYCKNESGSRSEG | 2.29 |
| DYFPSEDFYRCGYCKNESGSRSTG | 2.1 |
| DYFPSEDFYRCGYCKNESGSRSDG | 2.1 |
| DYFPSEDFYRCGYCKNESGSRSQG | 2.53 |
| DYFPSEDFYRCGYCKNESGSRSSG | 2.32 |
| DYFPSEDFYRCGYCKNESGKRSNG | 2.36 |
| DYFPSEDFYRCGYCKNESGARSNG | 2.83 |
| DYFPSEDFYRCGYCKNESGHRSNG | 2.1 |
| DYFPSEDFYRCGYCKNESGPRSNG | 2.36 |
| DYFPSEDFYRCGYCKNESGDRSNG | 2.25 |
| DYFPSEDFYRCGYCKNESGLRSNG | 1.33 |
| DYFPSEDFYRCGYCKNESGVRSNG | 2.25 |

| Variant | protein stability index |
| --- | --- |
| DYFPSEDFYRCGYCKNESGQRSNG | 1.94 |
| DYFPSEDFYRCGYCKNESGMRSNG | 2.51 |
| DYFPSEDFYRCGYCKNESGFRSNG | 1.72 |
| DYFPSEDFYRCGYCKNESGERSNG | 2.5 |
| DYFPSEDFYRCGYCKNESGCRSNG | 1.86 |
| DYFPSEDFYRCGYCKNESGTRSNG | 1.88 |
| DYFPSEDFYRCGYCKNESGNRSNG | 1.79 |
| DYFPSEDFYRCGYCKNESGIRSNG | 2.01 |
| DYFPSEDFYRCGYCKNESGRRSNG | 2.07 |
| DYFPSEDFYRCGYCKNESGYRSNG | 1.75 |
| DYFPSEDFYRCGYCKNESGGRSNG | 2.53 |
| DYFPSEDFYRCGYCKNESGSRSNT | 2.35 |
| DYFPSEDFYRCGYCKNESGSRSNM | 1.89 |
| DYFPSEDFYRCGYCKNESGSRSNH | 2.04 |
| DYFPSEDFYRCGYCKNESGSRSNR | 2.5 |
| DYFPSEDFYRCGYCKNESGSRSNP | 3 |
| DYFPSEDFYRCGYCKNESGSRSNY | 2.13 |
| DYFPSEDFYRCGYCKNESGSRSNS | 1.62 |
| DYFPSEDFYRCGYCKNESGSRSNA | 1.88 |
| DYFPSEDFYRCGYCKNESGSRSND | 2.26 |
| DYFPSEDFYRCGYCKNESGSRSNC | 1.93 |
| DYFPSEDFYRCGYCKNESGSRSNN | 2.09 |
| DYFPSEDFYRCGYCKNESGSRSNI | 2.34 |

| Variant | protein stability index |
| --- | --- |
| DYFPSEDFYRCGYCKNESGSRSNV | 1.75 |
| DYFPSEDFYRCGYCKNESGSRSNW | 1.78 |
| DYFPSEDFYRCGYCKNESGSRSNQ | 1.93 |
| DYFPSEDFYRCGYCKNESGSRSNK | 2.83 |
| DYFPSEDFYRCGYCKNESGSRSNL | 2.15 |
| DYFPSEDFYRCGYCKNESGSRSNF | 1.92 |
| DYFPSEDFYRCGYCKNESGSRSNE | 2.67 |
| DYFPSEDFYRCGYCKNESGSFSNG | 2.39 |
| DYFPSEDFYRCGYCKNESGSGSNG | 2.79 |
| DYFPSEDFYRCGYCKNESGSKSNG | 2.61 |
| DYFPSEDFYRCGYCKNESGSLSNG | 1.58 |
| DYFPSEDFYRCGYCKNESGSYSNG | 1.79 |
| DYFPSEDFYRCGYCKNESGSDSNG | 3.09 |
| DYFPSEDFYRCGYCKNESGSESNG | 2.44 |
| DYFPSEDFYRCGYCKNESGSTSNG | 2.24 |
| DYFPSEDFYRCGYCKNESGSASNG | 2.54 |
| DYFPSEDFYRCGYCKNESGSQSNG | 2.67 |
| DYFPSEDFYRCGYCKNESGSSSNG | 2.22 |
| DYFPSEDFYRCGYCKNESGSCSNG | 2.83 |
| DYFPSEDFYRCGYCKNESGSNSNG | 2.47 |
| DYFPSEDFYRCGYCKNESGSPSNG | 2.69 |
| DYFPSEDFYRCGYCKNESGSISNG | 1.79 |
| DYFPSEDFYRCGYCKNESGSMSNG | 2.08 |

| Variant | protein stability index |
| --- | --- |
| DYFPSEDFYRCGYCKNESGSVSNG | 2.5 |
| DYFPSEDFYRCGYCKNESGSHSNG | 2.19 |
| DYFPSEDFYRCGYCKNESGSWSNG | 2.03 |
| DYFPSEDFYRCGYCKNESGSRDNG | 2.6 |
| DYFPSEDFYRCGYCKNESGSRKNG | 2.02 |
| DYFPSEDFYRCGYCKNESGSRWNG | 2.33 |
| DYFPSEDFYRCGYCKNESGSRPNG | 2.46 |
| DYFPSEDFYRCGYCKNESGSRFNG | 1.58 |
| DYFPSEDFYRCGYCKNESGSRENG | 2.52 |
| DYFPSEDFYRCGYCKNESGSRGNG | 2.04 |
| DYFPSEDFYRCGYCKNESGSRMNG | 3.37 |
| DYFPSEDFYRCGYCKNESGSRVNG | 2.12 |
| DYFPSEDFYRCGYCKNESGSRING | 2.54 |
| DYFPSEDFYRCGYCKNESGSRRNG | 1.68 |
| DYFPSEDFYRCGYCKNESGSRNNG | 2.07 |
| DYFPSEDFYRCGYCKNESGSRTNG | 1.82 |
| DYFPSEDFYRCGYCKNESGSRYNG | 2.42 |
| DYFPSEDFYRCGYCKNESGSRCNG | 2.17 |
| DYFPSEDFYRCGYCKNESGSRANG | 1.85 |
| DYFPSEDFYRCGYCKNESGSRLNG | 1.57 |
| DYFPSEDFYRCGYCKNESGSRQNG | 2.6 |
| DYFPSEDFYRCGYCKNESGSRHNG | 2.01 |
